Assay results published in PMC4229036.

Target: Donor-labeled human factor Xa (fluorescein-EGR-chloromethylketone at the active site) (human)
Test: fluorescence polarisation

Work on “Recombinant human factor Va (FVa2) with a N2181Q mutation (natural protein)” yielded a fluorescence anisotropy of active-site fluorescein (200 µM C6PS) of 0.21, a fluorescence anisotropy of active-site fluorescein (400 µM C6PS) of 0.22 and a fluorescence anisotropy of active-site fluorescein (700 µM C6PS) of 0.22. It also gave a fluorescence anisotropy of active-site fluorescein (on membranes) of 0.22.
